The values that follow come from US12247058 (Bristol-Myers Squibb, dated 2025).

The target in assay [1] is T1, human β-klotho with a C-terminal FLAG tag, stably expressed in a clonal HEK-293 cell line (human, UniProt Q86Z14 1-1044).
T1 sequence: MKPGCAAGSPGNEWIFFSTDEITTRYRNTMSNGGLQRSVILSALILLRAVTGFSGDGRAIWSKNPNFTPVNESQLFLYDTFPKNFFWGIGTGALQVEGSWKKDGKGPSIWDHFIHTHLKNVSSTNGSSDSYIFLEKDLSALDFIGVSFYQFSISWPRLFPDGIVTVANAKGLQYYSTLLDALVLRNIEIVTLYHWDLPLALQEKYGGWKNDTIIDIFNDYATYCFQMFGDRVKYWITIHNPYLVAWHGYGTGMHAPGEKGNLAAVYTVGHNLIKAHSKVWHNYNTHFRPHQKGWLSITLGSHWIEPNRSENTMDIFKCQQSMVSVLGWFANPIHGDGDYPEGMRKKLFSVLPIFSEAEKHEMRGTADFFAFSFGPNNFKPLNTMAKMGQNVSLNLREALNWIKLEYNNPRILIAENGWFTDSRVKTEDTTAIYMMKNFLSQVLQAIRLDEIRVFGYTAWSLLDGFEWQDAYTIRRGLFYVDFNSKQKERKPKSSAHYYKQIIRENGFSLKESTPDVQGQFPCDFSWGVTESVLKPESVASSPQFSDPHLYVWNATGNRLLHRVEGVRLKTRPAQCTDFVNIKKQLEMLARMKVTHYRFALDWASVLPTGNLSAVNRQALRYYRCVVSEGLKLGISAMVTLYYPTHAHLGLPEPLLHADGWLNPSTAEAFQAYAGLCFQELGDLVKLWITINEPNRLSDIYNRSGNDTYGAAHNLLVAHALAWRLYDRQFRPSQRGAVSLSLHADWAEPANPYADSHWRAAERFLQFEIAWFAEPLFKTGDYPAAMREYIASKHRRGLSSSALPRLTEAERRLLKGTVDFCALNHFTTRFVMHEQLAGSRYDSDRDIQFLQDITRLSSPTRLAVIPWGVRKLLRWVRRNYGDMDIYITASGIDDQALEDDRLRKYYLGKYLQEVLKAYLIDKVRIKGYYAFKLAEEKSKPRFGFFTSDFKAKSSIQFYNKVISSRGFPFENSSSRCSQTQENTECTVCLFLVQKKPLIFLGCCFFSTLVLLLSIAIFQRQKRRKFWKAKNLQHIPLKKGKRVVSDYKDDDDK
Description: cell-based or functional assay.

The target of assay [2] is T1, human β-klotho with a C-terminal FLAG …. Put plainly: cell-based or functional assay. This is another data set of the same source.

Non-standard residues stand in square brackets, D forms with d. Phe(4-Ac) = CC(=O)c1ccc(C[C@H](N)C(=O)O)cc1

B1: Compound 22 (ligand)
chain: MHPIPDSSPLLQFGGQVRQRYLYTDDAQQTEAHLEIREDGTVGGAADQSPESLLQLKALKPGVIQILGVKTSRFLCQRPDGALYGSLHFDPEACSFRELLLEDGYNVYQSEAHGLPLHLSGGPAPRGPARFLPLPGLPPAPPEPPGILAPQPPDVGSSDPLSMVEPSQGRSPSYAS
Regarding B1, the “pERK EC50” value in assay [1] turned out to be 4.1 nM.

B2: Pegylated Compound 11 (ligand)
chain: MHPIPDSSPLLQFGGQVRQRYLYTDDAQQTEAHLEIREDGTVGGAADQSPESLLQLKALKPGVIQILGVKTSRFLCQRPDGALYGSLHFDPEACSFRELLLEDGYNVY[Phe(4-Ac)](PEG about 30 kDa)SEAHGLPLHLGSGHRDPAPRGPARFLPLPGLPPAPPEPPGILAPQPPDVGSSDPLSMVEPSQGRSPSYAS
On to B2, for which the “EC50 in the pERK assay” value in assay [2] is 30 nM.

B3: Compound 2 (ligand)
chain: MHPIPDSSPLLQFGGQVRQRYLYTDDAQQTEAHLEIREDGTVGGAADQSPESLLQLKALKPGVIQILGVKTSRFLCQRPDGALYGSLHFDPEACSFRELLLEDGYNVYQSEAHGLPLHLGSGRGPARFLPLPGLPPAPPEPPGILAPQPPDVGSSDPLSMVEPSQGRSPSYAS
On to B3, for which the “pERK EC50” value in assay [1] turned out to be 4.6 nM.

B4: Pegylated Compound 5 (ligand)
chain: MHPIPDSSPLLQFGGQVRQRYLYTDDAQQTEAHLEIREDGTVGGAADQSPESLLQLKALKPGVIQILGVKTSRFLCQRPDGALYGSLHFDPEACSFRELLLEDGYNVY[Phe(4-Ac)](PEG 30 kDa)SEAHGLPLHLPGDKSRDPAPRGPARFLPLPGLPPAPPEPPGILAPQPPDVGSSDPLSMVEPSQGRSPSYAS
As for B4, the “EC50 in the pERK assay” value in assay [2] amounted to 24 nM.

B5: Pegylated Compound 6 (ligand)
chain: MHPIPDSSPLLQFGGQVRQRYLYTDDAQQTEAHLEIREDGTVGGAADQSPESLLQLKALKPGVIQILGVKTSRFLCQRPDGALYGSLHFDPEACSFRELLLEDGYNVY[Phe(4-Ac)](PEG 30 kDa)SEAHGLPLHLPGHKSRDPAPRGPARFLPLPGLPPAPPEPPGILAPQPPDVGSSDPLSMVEPSQGRSPSYAS
As for B5, the “EC50 in the pERK assay” value in assay [2] was determined as 20 nM.

B6: Compound 3 (ligand)
chain: MHPIPDSSPLLQFGGQVRQRYLYTDDAQQTEAHLEIREDGTVGGAADQSPESLLQLKALKPGVIQILGVKTSRFLCQRPDGALYGSLHFDPEACSFRELLLEDGYNVYQSEAHGLPLHLPGNKSPHRDPAPRGPARFLPLPGLPPAPPEPPGILAPQPPDVGSSDPLSMVEPSQGRSPSYAS
B6: in assay [1], the “pERK EC50” value was determined as 28 nM.

B7: Compound 7 (ligand)
chain: MHPIPDSSPLLQFGGQVRQRYLYTDDAQQTEAHLEIREDGTVGGAADQSPESLLQLKALKPGVIQILGVKTSRFLCQRPDGALYGSLHFDPEACSFRELLLEDGYNVYQSEAHGLPLHLPGDKSPHRDPAPRGPARFLPLPGLPPAPPEPPGILAPQPPDVGSSDPLSMVEPSQGRSPSYAS
With B7, the “pERK EC50” value in assay [1] stood at 28.4 nM.

B8: Compound 10 (ligand)
chain: MHPIPDSSPLLQFGGQVRQRYLYTDDAQQTEAHLEIREDGTVGGAADQSPESLLQLKALKPGVIQILGVKTSRFLCQRPDGALYGSLHFDPEACSFRELLLEDGYNVYQSEAHGLPLHLGSGGPARFLPLPGLPPAPPEPPGILAPQPPDVGSSDPLSMVEPSQGRSPSYAS
With B8, the “pERK EC50” value in assay [1] came to 21.9 nM.

B9: Compound 11 (ligand)
chain: MHPIPDSSPLLQFGGQVRQRYLYTDDAQQTEAHLEIREDGTVGGAADQSPESLLQLKALKPGVIQILGVKTSRFLCQRPDGALYGSLHFDPEACSFRELLLEDGYNVYQSEAHGLPLHLGSGHRDPAPRGPARFLPLPGLPPAPPEPPGILAPQPPDVGSSDPLSMVEPSQGRSPSYAS
B9: the “pERK EC50” value in assay [1] was determined as 28.2 nM.

B10: Pegylated Compound 10 (ligand)
chain: MHPIPDSSPLLQFGGQVRQRYLYTDDAQQTEAHLEIREDGTVGGAADQSPESLLQLKALKPGVIQILGVKTSRFLCQRPDGALYGSLHFDPEACSFRELLLEDGYNVY[Phe(4-Ac)](PEG about 30 kDa)SEAHGLPLHLGSGGPARFLPLPGLPPAPPEPPGILAPQPPDVGSSDPLSMVEPSQGRSPSYAS
Regarding B10, in assay [2], the “EC50 in the pERK assay” value was found to be 28 nM.

B11: Compound 20 (ligand)
chain: MHPIPDSSPLLQFGGQVRQRYLYTDDAQQTEAHLEIREDGTVGGAADQSPESLLQLKALKPGVIQILGVKTSRFLCQRPDGALYGSLHFDPEACSFRELLLEDGYNVYQSEAHGLPLHLGGHRDPAPRGPARFLPLPGLPPAPPEPPGILAPQPPDVGSSDPLSMVEPSQGRSPSYAS
B11: the “pERK EC50” value in assay [1] came to 3.9 nM.

B12: Pegylated Compound 21 (ligand)
chain: MHPIPDSSPLLQFGGQVRQRYLYTDDAQQTEAHLEIREDGTVGGAADQSPESLLQLKALKPGVIQILGVKTSRFLCQRPDGALYGSLHFDPEACSFRELLLEDGYNVY[Phe(4-Ac)](PEG about 30 kDa)SEAHGLPLHLGSGRDPAPRGPARFLPLPGLPPAPPEPPGILAPQPPDVGSSDPLSMVEPSQGRSPSYAS
As to B12, the “EC50 in the pERK assay” value in assay [2] is 30 nM.

B13: Compound 19 (ligand)
chain: MHPIPDSSPLLQFGGQVRQRYLYTDDAQQTEAHLEIREDGTVGGAADQSPESLLQLKALKPGVIQILGVKTSRFLCQRPDGALYGSLHFDPEACSFRELLLEDGYNVYQSEAHGLPLHLGSGPHRDPAPRGPARFLPLPGLPPAPPEPPGILAPQPPDVGSSDPLSMVEPSQGRSPSYAS
As for B13, the “pERK EC50” value in assay [1] is 5.1 nM.

B14: Compound 6 (ligand)
chain: MHPIPDSSPLLQFGGQVRQRYLYTDDAQQTEAHLEIREDGTVGGAADQSPESLLQLKALKPGVIQILGVKTSRFLCQRPDGALYGSLHFDPEACSFRELLLEDGYNVYQSEAHGLPLHLPGHKSRDPAPRGPARFLPLPGLPPAPPEPPGILAPQPPDVGSSDPLSMVEPSQGRSPSYAS
B14: the “pERK EC50” value in assay [1] stood at 39.1 nM.

B15: Compound 5 (ligand)
chain: MHPIPDSSPLLQFGGQVRQRYLYTDDAQQTEAHLEIREDGTVGGAADQSPESLLQLKALKPGVIQILGVKTSRFLCQRPDGALYGSLHFDPEACSFRELLLEDGYNVYQSEAHGLPLHLPGDKSRDPAPRGPARFLPLPGLPPAPPEPPGILAPQPPDVGSSDPLSMVEPSQGRSPSYAS
B15: the “pERK EC50” value in assay [1] stood at 69.2 nM.

B16: Compound 12 (ligand)
chain: MHPIPDSSPLLQFGGQVRQRYLYTDDAQQTEAHLEIREDGTVGGAADQSPESLLQLKALKPGVIQILGVKTSRFLCQRPDGALYGSLHFDPEACSFRELLLEDGYNVYQSEAHGLPLHLPHHSGRDPAPRGPARFLPLPGLPPAPPEPPGILAPQPPDVGSSDPLSMVEPSQGRSPSYAS
On to B16, for which the “pERK EC50” value in assay [1] is 31.9 nM.

B17: Pegylated Compound 20 (ligand)
chain: MHPIPDSSPLLQFGGQVRQRYLYTDDAQQTEAHLEIREDGTVGGAADQSPESLLQLKALKPGVIQILGVKTSRFLCQRPDGALYGSLHFDPEACSFRELLLEDGYNVY[Phe(4-Ac)](PEG about 30 kDa)SEAHGLPLHLGGHRDPAPRGPARFLPLPGLPPAPPEPPGILAPQPPDVGSSDPLSMVEPSQGRSPSYAS
For the molecule B17, the “EC50 in the pERK assay” value in assay [2] worked out at 42 nM.

B18: Compound 23 (ligand)
chain: MHPIPDSSPLLQFGGQVRQRYLYTDDAQQTEAHLEIREDGTVGGAADQSPESLLQLKALKPGVIQILGVKTSRFLCQRPDGALYGSLHFDPEACSFRELLLEDGYNVYQSEAHGLPLHLGGGPARFLPLPGLPPAPPEPPGILAPQPPDVGSSDPLSMVEPSQGRSPSYAS
With B18, in assay [1], the “pERK EC50” value was found to be 30 nM.

B19: Pegylated Compound 19 (ligand)
chain: MHPIPDSSPLLQFGGQVRQRYLYTDDAQQTEAHLEIREDGTVGGAADQSPESLLQLKALKPGVIQILGVKTSRFLCQRPDGALYGSLHFDPEACSFRELLLEDGYNVY[Phe(4-Ac)](PEG about 30 kDa)SEAHGLPLHLGSGPHRDPAPRGPARFLPLPGLPPAPPEPPGILAPQPPDVGSSDPLSMVEPSQGRSPSYAS
On to B19, for which, in assay [2], the “EC50 in the pERK assay” value amounted to 30 nM.

B20: Pegylated Compound 12 (ligand)
chain: MHPIPDSSPLLQFGGQVRQRYLYTDDAQQTEAHLEIREDGTVGGAADQSPESLLQLKALKPGVIQILGVKTSRFLCQRPDGALYGSLHFDPEACSFRELLLEDGYNVY[Phe(4-Ac)](PEG about 30 kDa)SEAHGLPLHLPHHSGRDPAPRGPARFLPLPGLPPAPPEPPGILAPQPPDVGSSDPLSMVEPSQGRSPSYAS
With B20, the “EC50 in the pERK assay” value in assay [2] was 39 nM.
